Measured values reported in patent US20150147342A1.

How the values were obtained:
[1] = target: Monomeric fibrinogen-like domain of human Ang2 (hAng-2FD) (human) (UniProt O15123); assay: SPR, peptibody captured on anti-human IgG, 25 C, steady-state
[2] = target: Full-length wild-type human Ang-1 (hAng-1-WT) (human) (UniProt Q15389); assay: SPR, peptibody captured on anti-human IgG, 25 C
[3] = target: wild-type human Ang-2 (hAng-2-WT) (human) (UniProt O15123); assay: SPR, peptibody captured on anti-human IgG, 37 C
wild-type human Ang-2 (hAng-2-WT) (human), sequence (O15123 19-496 limits assumed): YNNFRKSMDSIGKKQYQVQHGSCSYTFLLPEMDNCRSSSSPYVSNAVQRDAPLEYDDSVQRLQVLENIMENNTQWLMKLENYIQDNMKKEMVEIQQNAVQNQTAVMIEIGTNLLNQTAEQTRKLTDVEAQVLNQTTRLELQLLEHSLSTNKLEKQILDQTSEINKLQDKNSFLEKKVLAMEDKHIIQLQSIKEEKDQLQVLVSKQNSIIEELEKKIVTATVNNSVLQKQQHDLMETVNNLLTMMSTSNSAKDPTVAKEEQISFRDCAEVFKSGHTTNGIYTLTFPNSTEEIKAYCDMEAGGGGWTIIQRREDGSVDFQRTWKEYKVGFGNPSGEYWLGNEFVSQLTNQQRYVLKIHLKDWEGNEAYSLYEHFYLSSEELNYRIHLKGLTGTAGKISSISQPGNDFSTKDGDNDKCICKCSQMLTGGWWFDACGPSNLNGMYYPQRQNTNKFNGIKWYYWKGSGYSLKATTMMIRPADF

[4] = target: Full-length wild-type human Ang-1 (hAng-1-WT) (human) (UniProt Q15389); assay: SPR, peptibody captured on anti-human IgG, 37 C
[5] = target: Full-length wild-type human Ang-1 (hAng-1-WT) (human) (UniProt Q15389); assay: cell-based or functional assay
[6] = target: wild-type human Ang-2 (hAng-2-WT) (human) (UniProt O15123); assay: SPR, peptibody captured on anti-human IgG, 25 C
[7] = target: Full-length wild-type human Ang-1 (hAng-1-WT) (human) (UniProt Q15389); assay: SPR, peptibody captured on anti-human IgG, 25 C; remark: listed apart in the source
[8] = target: wild-type human Ang-2 (hAng-2-WT) (human) (UniProt O15123); assay: SPR, peptibody captured
[9] = target: Monomeric fibrinogen-like domain of human Ang2 (hAng-2FD) (human) (UniProt O15123); assay: SPR, peptibody captured
[10] = target: wild-type human Ang-2 (hAng-2-WT) (human) (UniProt O15123); assay: SPR, peptibody captured on anti-human IgG, 25 C; remark: listed apart in the source
hAng-1-WT (human) [11] = target: hAng-1-WT (human) (UniProt Q15389); assay: SPR, 1 uM blocker + 10 nM hAng-1-WT over hTie-2-mFc surface (competitor), 25 C
hAng-1-WT (human), sequence (Q15389 20-498 limits assumed): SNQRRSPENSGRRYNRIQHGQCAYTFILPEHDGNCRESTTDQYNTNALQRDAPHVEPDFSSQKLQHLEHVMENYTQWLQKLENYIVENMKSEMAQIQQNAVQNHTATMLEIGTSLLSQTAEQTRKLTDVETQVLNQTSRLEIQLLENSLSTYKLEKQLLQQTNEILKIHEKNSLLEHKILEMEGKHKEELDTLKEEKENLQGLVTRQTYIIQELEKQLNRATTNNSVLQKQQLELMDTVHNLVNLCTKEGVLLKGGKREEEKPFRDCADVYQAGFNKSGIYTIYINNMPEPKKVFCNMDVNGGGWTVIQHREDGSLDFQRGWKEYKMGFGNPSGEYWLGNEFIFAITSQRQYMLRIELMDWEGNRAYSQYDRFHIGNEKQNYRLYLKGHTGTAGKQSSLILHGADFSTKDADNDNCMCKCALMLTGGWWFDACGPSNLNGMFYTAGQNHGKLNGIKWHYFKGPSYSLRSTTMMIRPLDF

hAng-1-WT (human) [12] = target: hAng-1-WT (human) (UniProt Q15389); assay: SPR, 1 uM blocker + 10 nM hAng-1-WT over hTie-2-mFc surface (competitor), 25 C; RU of Ang-1 bound to Tie-2
[13] = target: Dimeric fibrinogen-like domain of monkey (Macca fascicularis) Ang-2 conjugated to human IgG1 (monkey (Macca fascicularis)); assay: SPR, antibody captured on anti-human kappa, 25 C
Dimeric fibrinogen-like domain of monkey (Macca fascicularis) Ang-2 conjugated to human IgG1 (monkey (Macca fascicularis)), sequence (chain, as listed by the source limits assumed): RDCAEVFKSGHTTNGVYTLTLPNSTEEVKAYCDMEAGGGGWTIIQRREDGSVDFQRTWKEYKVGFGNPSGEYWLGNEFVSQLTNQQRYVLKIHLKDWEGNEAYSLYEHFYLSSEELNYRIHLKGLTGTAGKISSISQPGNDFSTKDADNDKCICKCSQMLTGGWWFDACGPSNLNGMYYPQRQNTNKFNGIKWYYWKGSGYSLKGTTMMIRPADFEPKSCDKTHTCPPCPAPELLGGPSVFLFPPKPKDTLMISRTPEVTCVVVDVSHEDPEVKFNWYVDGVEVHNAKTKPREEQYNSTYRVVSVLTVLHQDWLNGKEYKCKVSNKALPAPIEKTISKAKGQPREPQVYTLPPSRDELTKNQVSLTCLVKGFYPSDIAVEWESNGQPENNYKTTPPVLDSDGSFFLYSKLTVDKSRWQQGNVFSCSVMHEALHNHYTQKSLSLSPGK

[14] = target: Dimeric fibrinogen-like domain of mouse (Mus musculus) Ang-2 conjugated to human IgG1 (mouse (Mus musculus)); assay: SPR, antibody captured on anti-human kappa, 25 C
Dimeric fibrinogen-like domain of mouse (Mus musculus) Ang-2 conjugated to human IgG1 (mouse (Mus musculus)), sequence (chain, as listed by the source limits assumed): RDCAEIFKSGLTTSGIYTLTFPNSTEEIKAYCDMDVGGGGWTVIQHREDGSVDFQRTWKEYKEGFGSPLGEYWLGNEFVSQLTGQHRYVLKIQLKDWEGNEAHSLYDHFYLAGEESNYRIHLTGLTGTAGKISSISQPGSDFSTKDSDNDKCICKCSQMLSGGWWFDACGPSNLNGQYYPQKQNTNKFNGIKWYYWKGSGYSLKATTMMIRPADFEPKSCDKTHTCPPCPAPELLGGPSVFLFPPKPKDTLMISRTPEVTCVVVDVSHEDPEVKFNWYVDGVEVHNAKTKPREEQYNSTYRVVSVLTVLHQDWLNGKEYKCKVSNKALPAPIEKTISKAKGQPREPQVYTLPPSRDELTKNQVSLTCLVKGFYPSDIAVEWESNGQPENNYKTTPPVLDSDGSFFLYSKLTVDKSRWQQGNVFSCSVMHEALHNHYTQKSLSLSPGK

[15] = target: Dimeric Human Ang-2FD-mFc (human) (UniProt O15123); assay: SPR, antibody captured on anti-human kappa, 25 C
Dimeric Human Ang-2FD-mFc (human), sequence (O15123 282-496 limits assumed): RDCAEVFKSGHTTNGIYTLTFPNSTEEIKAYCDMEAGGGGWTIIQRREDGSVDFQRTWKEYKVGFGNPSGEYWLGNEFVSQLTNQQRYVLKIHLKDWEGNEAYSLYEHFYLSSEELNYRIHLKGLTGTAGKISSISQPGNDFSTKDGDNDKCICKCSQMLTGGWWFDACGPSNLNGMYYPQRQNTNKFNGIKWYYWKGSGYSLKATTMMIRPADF

[16] = target: Monomeric fibrinogen-like domain of human Ang2 (hAng-2FD) (human) (UniProt O15123); assay: SPR, antibody captured on anti-human IgG, 37 C, steady-state
[17] = target: Dimeric fibrinogen-like domain of monkey (Macca fascicularis) Ang-2 conjugated to human IgG1 (monkey (Macca fascicularis)); assay: SPR, antibody captured on anti-human kappa, 37 C
[18] = target: Dimeric fibrinogen-like domain of mouse (Mus musculus) Ang-2 conjugated to human IgG1 (mouse (Mus musculus)); assay: SPR, antibody captured on anti-human kappa, 37 C
[19] = target: Dimeric Human Ang-2FD-mFc (human) (UniProt O15123); assay: SPR, antibody captured on anti-human kappa, 37 C
[20] = target: wild-type human Ang-2 (hAng-2-WT) (human) (UniProt O15123); assay: SPR, antibody captured on anti-human IgG, 25 C
[21] = target: Monomeric fibrinogen-like domain of human Ang2 (hAng-2FD) (human) (UniProt O15123); assay: SPR, antibody captured on anti-human IgG, 25 C
[22] = target: Full-length wild-type human Ang-1 (hAng-1-WT) (human) (UniProt Q15389); assay: SPR, antibody captured on anti-human IgG, 25 C

Monomeric fibrinogen-like domain of human Ang2 (hAng-2FD) (human), sequence (O15123 282-496 limits assumed): as above
Full-length wild-type human Ang-1 (hAng-1-WT) (human), sequence (Q15389 20-498 limits assumed): as the sequence (Q15389 20-498 limits assumed) above

Q: Which Kd [1] does the source give for “Control II: peptibody that binds human Ang-2 having the amino acid sequence of 2XCon4(C) (Fc fusion)” here?
A: 90 nM

Q: What about the Kd [2] of the same substance?
A: 0.0826 nM

Q: And the T1/2 [2]?
A: 7.67 h

Q: What about the koff [2] of the same substance?
A: 2.51e-05 s⁻¹

Q: And the kon [2]?
A: 304000 M⁻¹ s⁻¹

Q: And the Kd [3]?
A: 3.09 nM

Q: What about the T1/2 [3] of the same substance?
A: 1.65 h

Q: And the koff [3]?
A: 0.000117 s⁻¹

Q: And the kon [3]?
A: 37900 M⁻¹ s⁻¹

Q: What about the Kd [4] of the same substance?
A: 0.155 nM

Q: And the T1/2 [4]?
A: 4.43 h

Q: And the koff [4]?
A: 4.35e-05 s⁻¹

Q: What about the kon [4] of the same substance?
A: 281000 M⁻¹ s⁻¹

Q: And the inhibition of Ang-1-induced Tie-2 phosphorylation in EA.hy926 cells (Western blot) [5]?
A: 50 nM

Q: And the Kd [6]?
A: 0.0447 nM

Q: And the T1/2 [6]?
A: 5.58 h

Q: And the koff [6]?
A: 3.45e-05 s⁻¹

Q: What about the kon [6] of the same substance?
A: 773000 M⁻¹ s⁻¹

Q: What about the Kd [7] of the same substance?
A: 0.0782 nM

Q: What about the T1/2 [7] of the same substance?
A: 5.43 h

Q: And the koff [7]?
A: 3.54e-05 s⁻¹

Q: And the kon [7]?
A: 453000 M⁻¹ s⁻¹

Q: And the Kd [8]?
A: 0.0447 nM

Q: And the T1/2 [8]?
A: 5.58 h

Q: And the Kd [9]?
A: 90 nM

Q: What about the Kd [10] of the same substance?
A: 0.652 nM

Q: And the T1/2 [10]?
A: 3.55 h

Q: And the koff [10]?
A: 5.41e-05 s⁻¹

Q: And the kon [10]?
A: 83000 M⁻¹ s⁻¹

Q: What does the source list for “Negative Control (irrelevant peptibody) (Fc fusion)”?
A: Percent of Negative Control Binding (hAng-1-WT (human) [11]): 100%; RU (average) (hAng-1-WT (human) [12]): 169 RU

Q: For “Control IV: human anti-Ang-2 antibody with the variable regions of 3.19.3”, which Kd [13] is on record?
A: 0.0155 nM

Q: And the T1/2 [13]?
A: 5.7 h

Q: And the Kd [14]?
A: 0.0402 nM

Q: What about the T1/2 [14] of the same substance?
A: 4.82 h

Q: What about the Kd [15] of the same substance?
A: 0.0127 nM

Q: And the T1/2 [15]?
A: 4.48 h

Q: What about the Kd [16] of the same substance?
A: 94 nM

Q: And the Kd [17]?
A: 0.0474 nM

Q: What about the T1/2 [17] of the same substance?
A: 1.78 h

Q: What about the Kd [18] of the same substance?
A: 0.054 nM

Q: And the T1/2 [18]?
A: 1.98 h

Q: What about the Kd [19] of the same substance?
A: 0.00991 nM

Q: And the T1/2 [19]?
A: 3.07 h

Q: What about the Kd [20] of the same substance?
A: 0.0722 nM

Q: And the T1/2 [20]?
A: 0.7 h

Q: What about the koff [20] of the same substance?
A: 0.000274 s⁻¹

Q: What about the kon [20] of the same substance?
A: 3.8e+06 M⁻¹ s⁻¹

Q: And the Kd [21]?
A: 125 nM

Q: And the T1/2 [21]?
A: 19 s

Q: And the koff [21]?
A: 0.0356 s⁻¹

Q: What about the kon [21] of the same substance?
A: 284000 M⁻¹ s⁻¹

Q: And the Kd [22]?
A: 0.168 nM

Q: What about the T1/2 [22] of the same substance?
A: 1.75 h

Q: And the koff [22]?
A: 0.000111 s⁻¹

Q: What about the kon [22] of the same substance?
A: 660000 M⁻¹ s⁻¹

Q: And the inhibition of Ang-1-induced Tie-2 phosphorylation in EA.hy926 cells (Western blot) [5]?
A: 100 nM
